Reference: the DeepSol protein solubility set

test: soluble on expression in E. coli; label from the status in PepcDB or PDB records

Row | Sequence | soluble on expression in E. coli
1 | MGSDKIHHHHHHAATHAKTTKTVKTTGGAKTKAAKAKAIKSTSTHIKLQGASNARDLGGYVNRHGQKIKAHRLIRANSLSHLTKADQTKLVKTYHVATDVDLRTTTEQKMSPDVHMAGVKLVKANVFKSFGAFPDFSKKGAGAKMMEKTYHDAVTTAQGRKAYKSLFHQLLINPKGKAVLWHCSAGKDRAGMGTALVLSALKFDKKAIAQDYLKSNTYLAQTNKENLQKMEAGWKAQGKEVTPIVVENFRAQNAVKMAYLNTMYKAIDAKYGNMDNFLHKGLGLSNTQLKQLQANYLTSAK | not soluble
2 | MGSTKSRPLRDANGTPKFRHESIACVFRVHPQQGVDVLTVIRSRPPYADMSALPSGALETNEMLKDACLRHLSLSGVHPSMVSHIEQLDTRSAIDRDPYDRTIATAHLCLIPWDIDPSVTNGSFTPLVDLDELAFDHKNIIEQGLYRLRAKLSYSNIGFALAPRLFTISDLAKTYSHVLTYNVSPTNLQRILTRRNQLQPTTARAIGSGRPARLFTFTTDRLEITDPFATLKPTESRKCKS | not soluble
3 | MVLVLAEIITVGDELLTGNTVDSNSAYIAQRLTEKGFWVRRITTVGDDVKEIENAVREAISRKPEVLIISGGLGPTHDDVTMLGVANAIGRKLKLCEDCLERIKEFYEELHRKGLIDDPTLNEARKKMAYLPEGSEPLNNTEGAAPGAYVEYEGVKIFILPGMPREMKAMLESEVLPRLGERKFVQKKFLAEITDESKLAPILEDTIERFKVKIHSSPKGFGKYIGIIIFAEDDEVIGKVIRYIEGKGIKFREGW | soluble
4 | MAHHHHHHMRRFCTARVSSYVKRAPLLLPRGGRRWRSGAGTTADGGGEKEYIADSFESTAGSNAYAAMELAAEARREIHELWLSAETALEREKRVQQVAALIEKYKLDPSTPREADVSRGLGDAFDRLLLLCLPLGKTDAKGTDNLERLMHLAGRNGRELSVRTIQHLFARTDSFAEALAVFYTMRRCHVAMNMEAYYSMLYSLQRLEEEGWGQHFRNEYEENGAPSEQAMDFIVKGISNALLPENKPWLGRVMFQDRNVPDRRYDTRDFDELDTAWTQRYKSGTPAGAH | not soluble
5 | MGSDKIHHHHHHMSNVKTAEFKRPQLSLPHSADKLLLHSCCAPCSGEVMEAITASGIDYTIFFYNPNIHPQREYLIRKEENIRFAEQHNVPFIDADYDSDNWFERAKGMEWEPERGIRCTMCFDMRFERTALYAAENGFSVISSSLGISRWKNMQQINECGQNAAQKYPGVTYWDYNWRKGGGSARMIEISKREHFYQQEYCGCIYSLRDSNKHRKSQGRDIIRIGKLYYGDEAE | not soluble
6 | GGEGTDAIQALIQAYFTAWNTNAPERFAEIFWPDGSWVNVVGMHWRGRDQIVFAHTAFLKTIFKDCKQELVTIEARTIAPGSALAVVTLIQDAYVTPDGRQMPRAHDRLTLLAVEREGVWRFIHGHNTIVNPDAANNDPVLRMKPA | soluble
7 | MGSDKIHHHHHHENLYFQGMIESIQELLQKEAQAVLNIPVTDAYEKAVELIVEQIHRKKGKLVTSGMGKAGQIAMNIATTFCSTGIPSVFLHPSEAQHGDLGILQENDLLLLISNSGKTREIVELTQLAHNLNPGLKFIVITGNPDSPLASESDVCLSTGHPAEVCTLGMTPTTSTTVMTVIGDILVVQTMKRTEFTIEEYSKRHHGGYLGEKSRKLCVK | soluble
8 | MARGLNRVFLIGALATRPDMRYTPAGLAILDLTLAGQDLLLSDNGGEREVSWYHRVRLLGRQAEMWGDLLDQGQLVFVEGRLEYRQWEREGERRSELQIRADFLDPLDDRGKERAEDSRGQPRLRAALNQVFLMGNLTRDPELRYTPQGTAVARLGLAVNERRQGAEERTHFVEVQAWRDLAEWAAELRKGDGLFVIGRLVNDSWTSSSGERRFQTRVEALRLERPTRGPAQAGGSRSREVQTGGVDIDEGLEDFPPEEELPF | soluble
9 | MGWKMQATVTEIGKHAIDDSEKMIILFGETATDTLKQHAVIQSFPEKDQVTLAEGDHLKIGDTNYTITKVGSFANSNLQSIAHSTLIFADAPTDEDDVIRNGVYLTPHQLPKITIGTTIDYLVNGA | soluble
10 | MATSKILLYYAFTPLSDPKAVQLWQRELCESLNLRGRILISTHGINGTVGGDIDDCKAYIKKTREYPGFNRMQFKWSEGGAEDFPKLSVKVRDEIVAFGAPDELKVDENGVVGGGVHLKPQQVNELVEARGDEVVFFDGRNAMEAQIGKFKDAVVPDVETTHDFIAEIESGKYDDLKDKPVVTYCTGGIRCEILSSLMINRGFKEVYQIDGGIVRYGEQFGNKGLWEGSLYVFDKRMHMEFGEDYKEVGHCIHCDTPTNKFEHCLNEDDCRELVLMCPDCFANVETRHCKRERCAAIAADFAEQGIDPLVTS | not soluble
